# From patent publication US8168592B2 (Amgen Inc., priority 2005, dated 2012)
# Bridge positions count the residues as written; N and C are the ends. Square brackets hold non-standard residues; d marks the D form. Ends that are not written are not given here. Peptide text beside a SMILES is read from it. Oic = O=C(O)[C@@H]1C[C@@H]2CCCC[C@@H]2N1; 1Nal = N[C@@H](Cc1cccc2ccccc12)C(=O)O; 2Nal = N[C@@H](Cc1ccc2ccccc2c1)C(=O)O; hArg = N=C(N)NCCCC[C@H](N)C(=O)O; Cit = NC(=O)NCCC[C@H](N)C(=O)O; PEG = not defined here
# Target: T1, CGRP1 receptor (Homo sapiens, UniProt O60894+Q16602)
# T1 construct: SK-N-MC cells express CRLR and RAMP1, which form CGRP1 receptor; endogenous in cells; host or cells: SK-N-MC human neuroblastoma cells
# T1 sequence (Q16602 23-461): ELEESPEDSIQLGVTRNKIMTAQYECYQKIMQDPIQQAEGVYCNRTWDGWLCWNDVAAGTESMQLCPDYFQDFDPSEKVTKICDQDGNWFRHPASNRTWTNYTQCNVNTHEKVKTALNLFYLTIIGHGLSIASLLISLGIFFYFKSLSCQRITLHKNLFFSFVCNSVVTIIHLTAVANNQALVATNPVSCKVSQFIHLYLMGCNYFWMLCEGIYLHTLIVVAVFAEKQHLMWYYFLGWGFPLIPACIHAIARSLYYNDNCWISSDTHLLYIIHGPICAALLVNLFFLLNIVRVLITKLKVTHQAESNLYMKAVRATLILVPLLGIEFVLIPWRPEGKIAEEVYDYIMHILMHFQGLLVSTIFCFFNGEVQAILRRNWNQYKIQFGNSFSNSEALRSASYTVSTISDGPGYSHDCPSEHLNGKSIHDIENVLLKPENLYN
# T1 sequence (O60894 27-148): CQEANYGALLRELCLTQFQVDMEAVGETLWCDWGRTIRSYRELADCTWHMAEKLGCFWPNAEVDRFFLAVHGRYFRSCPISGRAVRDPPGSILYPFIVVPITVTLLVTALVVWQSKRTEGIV
# Test: in vitro CGRP1 receptor mediated cAMP assay in SK-N-MC cells
# Format: cell-based
# Conditions: not given
# Procedure, shortened: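 Human SK-N-MC neuroblastoma cells, which endogenously express CRLR/RAMP1, were plated two days before assay and preincubated in plasma-free medium for 15 minutes at room temperature. Cells were then lysed for 30 minutes at 37° C, and cAMP in the lysates was quantified by competitive cAMP-AP chemiluminescent ELISA.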
row,Compound,"antagonist activity in cAMP assay, in words"
1,SEQ ID NO:2 (CGGGGGGGVTHRLAGLLSRSGGVVKNNFVPTNVGSKAF-NH2),deleterious to potency
2,SEQ ID NO:8 (Ac-WVTHRLAGLLSRSGGVVRCNFVPTDVGPFAF-NH2),somewhat less active
3,SEQ ID NO:9 (Ac-WVTHRLAGLLSRSGGVVCNNFVPTDVGPFAF-NH2),somewhat less active
4,SEQ ID NO:14 (Ac-WVTHRLAGLLSRSGGVVC(PEG)NNFVPTDVGPFAF-NH2; reading uncertain),little effect on the antagonist activity of the parent peptide
5,SEQ ID NO:21 (WVTHXLAGLLSRSGGVVRKNFVPTDVGPFAF; CGRP peptide; MOD_RES (1)..(1): …ON; MISC_FEATURE (5)..(5): xaa=homoarginine; MOD_RES (31)..(31): AMIDATION),well tolerated
6,SEQ ID NO:22 (WVTHXLAGLLSRSGGVVRKNFVPTDVGPFAF; CGRP peptide; MOD_RES (1)..(1): …ON; MISC_FEATURE (5)..(5): xaa=homoarginine; MISC_FEATURE (19)..(19): PEGylated; MOD_RES (31)..(31): AMIDATION),retaining their CGRP1 receptor antagonist activity
7,SEQ ID NO:23 (WVTHRLAGLLSXSGGVVRKNFVPTDVGPFAF; CGRP peptide; MOD_RES (1)..(1): …ON; MISC_FEATURE (12)..(12): xaa=homoarginine; MOD_RES (31)..(31): AMIDATION),well tolerated
8,SEQ ID NO:24 (WVTHRLAGLLSXSGGVVRKNFVPTDVGPFAF; CGRP peptide; MOD_RES (1)..(1): …ON; MISC_FEATURE (12)..(12): xaa=homoarginine; MISC_FEATURE (19)..(19): PEGylated; MOD_RES (31)..(31): AMIDATION),retaining their CGRP1 receptor antagonist activity
9,SEQ ID NO:26 (WVTHXLAGLLSXSGGVVRKNFVPTDVGPFAF; CGRP peptide; MOD_RES (1)..(1): …ON; MISC_FEATURE (5)..(5): xaa=homoarginine; MISC_FEATURE (12)..(12): xaa=homoarginine; MISC_FEATURE (19)..(19): PEGylated; MOD_RES (31)..(31): AMIDATION),antagonist activity returned to the levels of the two peptides with single substitutions
10,SEQ ID NO:27 (WVTHXLAGLLSRSGGVVRKNFVPTDVGPFAF; CGRP peptide; MOD_RES (1)..(1): …ON; MISC_FEATURE (5)..(5): xaa=citrulline; MOD_RES (31)..(31): AMIDATION),well tolerated
11,SEQ ID NO:28 (WVTHXLAGLLSRSGGVVRKNFVPTDVGPFAF; CGRP peptide; MOD_RES (1)..(1): …ON; MISC_FEATURE (5)..(5): xaa=citrulline; MISC_FEATURE (19)..(19): PEGylated; MOD_RES (31)..(31): AMIDATION),relatively minor loss of in vitro antagonist activity
12,SEQ ID NO:29 (WVTHRLAGLLSXSGGVVRKNFVPTDVGPFAF; CGRP peptide; MOD_RES (1)..(1): …ON; MISC_FEATURE (12)..(12): xaa=citrulline; MOD_RES (31)..(31): AMIDATION),well tolerated
13,SEQ ID NO:30 (WVTHRLAGLLSXSGGVVRKNFVPTDVGPFAF; CGRP peptide; MOD_RES (1)..(1): …ON; MISC_FEATURE (12)..(12): xaa=citrulline; MISC_FEATURE (19)..(19): PEGylated; MOD_RES (31)..(31): AMIDATION),relatively minor loss of in vitro antagonist activity
14,SEQ ID NO:33 (Ac-WVTHRLAGLLSASGGVVRCNFVPTDVGPFAF-NH2),not well tolerated
15,SEQ ID NO:35 (Ac-WVTHRLAGLLSQSGGVVRCNFVPTDVGPFAF-NH2),well tolerated
16,SEQ ID NO:40 (Ac-WVTHQLAGLLSQSGGVVRK(PEG)NFVPTDVGPFAF-NH2; reading uncertain),reasonably good in vitro potency

# Same assay, conditions: Table 2C; unconjugated peptide; read-out: Peptide IC50
row,IC50,Compound
1,0.83 nM,CC(=O)N[C@@H](Cc1c[nH]c2ccccc12)C(=O)N[C@H](C(=O)N[C@H](C(=O)N[C@@H](Cc1c[nH]cn1)C(=O)N[C@@H](CCCCNC(=N)N)C(=O)N[C@@H](CC(C)C)C(=O)N[C@H]1CCC(=O)NCCCC[C@@H](C(=O)N[C@@H](CCCNC(N)=O)C(=O)N[C@@H](CO)C(=O)NCC(=O)NCC(=O)N[C@H](C(=O)N[C@H](C(=O)N[C@@H](CCCCNC(=N)N)C(=O)N[C@@H](CCCCN)C(=O)N[C@@H](CC(N)=O)C(=O)N[C@@H](Cc2ccccc2)C(=O)N[C@H](C(=O)N2CCC[C@H]2C(=O)N[C@H](C(=O)N[C@@H](CC(=O)O)C(=O)N[C@H](C(=O)NCC(=O)N2[C@H](C(=O)N[C@@H](Cc3ccccc3)C(=O)N[C@@H](C)C(=O)N[C@@H](Cc3ccccc3)C(N)=O)C[C@@H]3CCCC[C@@H]32)C(C)C)[C@@H](C)O)C(C)C)C(C)C)C(C)C)NC(=O)[C@H](CC(C)C)NC(=O)[C@H](CC(C)C)NC(=O)CNC1=O)[C@@H](C)O)C(C)C [compound 942] (Ac-WVTH[hArg]LEGLLK[Cit]SGGVV[hArg]KNFVPTDVG[Oic]FAF-NH2; lactam 7-11)
2,0.85 nM,CC(=O)N[C@@H](Cc1c[nH]c2ccccc12)C(=O)N[C@H](C(=O)N[C@H](C(=O)N[C@@H](Cc1c[nH]cn1)C(=O)N[C@@H](CCCNC(N)=O)C(=O)N[C@@H](CC(C)C)C(=O)N[C@@H](C)C(=O)NCC(=O)N[C@H]1CCC(=O)NCCCC[C@@H](C(=O)NCC(=O)NCC(=O)N[C@H](C(=O)N[C@H](C(=O)N[C@@H](CCCCNC(=N)N)C(=O)N[C@@H](CCCCN)C(=O)N[C@@H](CC(N)=O)C(=O)N[C@@H](Cc2ccccc2)C(=O)N[C@H](C(=O)N2CCC[C@H]2C(=O)N[C@H](C(=O)N[C@@H](CC(=O)O)C(=O)N[C@H](C(=O)NCC(=O)N2[C@H](C(=O)N[C@@H](Cc3cccc4ccccc34)C(=O)N[C@@H](C)C(=O)N[C@@H](Cc3ccccc3)C(N)=O)C[C@@H]3CCCC[C@@H]32)C(C)C)[C@@H](C)O)C(C)C)C(C)C)C(C)C)NC(=O)[C@H](CCCCNC(=N)N)NC(=O)[C@H](CO)NC(=O)[C@H](CC(C)C)NC1=O)[C@@H](C)O)C(C)C [compound 944] (Ac-WVTH[Cit]LAGELS[hArg]KGGVV[hArg]KNFVPTDVG[Oic][1Nal]AF-NH2; lactam 9-13)
3,2.66 nM,CC(=O)N[C@@H](Cc1c[nH]c2ccccc12)C(=O)N[C@H](C(=O)N[C@H](C(=O)N[C@@H](Cc1c[nH]cn1)C(=O)N[C@@H](CCCNC(N)=O)C(=O)N[C@@H](CC(C)C)C(=O)N[C@@H](C)C(=O)NCC(=O)N[C@@H](CC(C)C)C(=O)N[C@@H](CC(C)C)C(=O)N[C@H](CO)C(=O)N[C@@H](CCCNC(N)=O)C(=O)N[C@@H](CO)C(=O)NCC(=O)NCC(=O)N[C@H](C(=O)N[C@H](C(=O)N[C@@H](CCCCNC(=N)N)C(=O)N[C@@H](CCCCN)C(=O)N[C@@H](CC(N)=O)C(=O)N[C@@H](Cc1ccc2ccccc2c1)C(=O)N[C@H](C(=O)N1CCC[C@H]1C(=O)N[C@H](C(=O)N[C@@H](CC(=O)O)C(=O)N[C@H](C(=O)NCC(=O)N1[C@H](C(=O)N[C@@H](Cc2ccccc2)C(=O)N[C@@H](C)C(=O)N[C@@H](Cc2ccccc2)C(N)=O)C[C@@H]2CCCC[C@@H]21)C(C)C)[C@@H](C)O)C(C)C)C(C)C)C(C)C)[C@@H](C)O)C(C)C [compound 953] (Ac-WVTH[Cit]LAGLL[dS][Cit]SGGVV[hArg]KN[2Nal]VPTDVG[Oic]FAF-NH2)
4,0.53 nM,Ac-WVTHQLAGLLSQSGGVVRKNFVPTDVGPFAF-NH2 [compound 857]
5,0.47 nM,Ac-WVTHRLAGLLSQSGGVVRKNFVPTDVGPFAF-NH2 [compound 856]
6,1.42 nM,Ac-WVTHRLAGLLSRPGGVVRKNFVPTDVGPFAF-NH2 [compound 860]
7,1.15 nM,Ac-WVTHRLAGLLSRSGGVVRKNFVPTDVGSKAF-NH2 [compound 915]

# Same assay, conditions: Table 2D; read-out: IC50
row,IC50,Compound
1,2.75 nM,Ac-WVTHRLAGLLSASGGVVRCNFVPTDVGPFAF-NH2 [compound 772]
2,1.27 nM,Ac-WVTHRLAGLLSRPGGVVRKNFVPTDVGPFAF-NH2 [compound 854]
3,0.36 nM,Ac-WVTHRLAGLLSRSGGVCRNNFVPTDVGPFAF-NH2 [compound 820]
4,0.51 nM,Ac-WVTHRLAGLLSRSGGVKRNNFVPTDVGPFAF-NH2 [compound 823]

# Same assay, conditions: Table 3; unconjugated CGRP peptide analogs; n = 2-4; read-out: IC50
row,IC50,Compound
1,2.15 nM,Ac-WVTHRLAGLLSRSGGVVCNNFVPTDVGPFAF-NH2 [compound 9]
2,0.72 nM,H-CGGGGGGGVTHRLAGLLSRSGGVVKNNFVPTDVGPFAF-NH2 [compound 3]

# Same assay, conditions: Table 7; R11 and/or R18 stability analogs, with or without 20 kDa PEG; read-out: IC50
row,IC50,Compound
1,0.37 nM,Ac-WVTHRLAGLLSQSGGVVRCNFVPTDVGPFAF-NH2 [compound 35]

# Same assay, conditions: amine linkage
row,more potent than the thioether-linked PEGylated analog SEQ ID NO:36,Compound
1,more than 42 fold,SEQ ID NO:38 (Ac-WVTHRLAGLLSQSGGVVRK(PEG)NFVPTDVGPFAF-NH2; reading uncertain)

# Same assay, conditions: cAMP assay
improved potency relative to native CGRP(8-37) (SEQ ID NO:1),loss in antagonist activity on PEGylation relative to the unconjugated parent peptide,Compound
more than 6 fold,,SEQ ID NO:3 (CGGGGGGGVTHRLAGLLSRSGGVVKNNFVPTDVGPFAF-NH2)
greater than 7 fold,,SEQ ID NO:4 (WVTHRLAGLLSRSGGVVKNNFVPTNVGSKAF-NH2)
greater than 35 fold,,SEQ ID NO:5 (Ac-WVTHRLAGLLSRSGGVVKNNFVPTDVGPFAF-NH2)
about 12 fold,three,SEQ ID NO:16 (Ac-WVTHRLAGLLSRSGGVVRK(PEG)NFVPTDVGPFAF-NH2; reading uncertain)
,greater than 12 fold,SEQ ID NO:36 (Ac-WVTHRLAGLLSQSGGVVRC(PEG)NFVPTDVGPFAF-NH2; reading uncertain)

# Same assay, conditions: unPEGylated peptides
row,improvement in potency compared to SEQ ID NO:9,Compound
1,more than 4 fold,SEQ ID NO:8 (Ac-WVTHRLAGLLSRSGGVVRCNFVPTDVGPFAF-NH2)
